In patent US20230226096A1 (Orna Therapeutics, Inc., priority 2020, published 2023):

B1: EV 30 (nucleic acid, listed as Enterovirus sp.)
DNA: AAGCAAGGCAAACCTGACCAATAGTAGGTGTGGCACACCAGCCGCATTTTGGTCAAGCACTTCTGTTTCCCCGGACCGAGTATCAATAAGCTGCTCACGCGGCTGAAGGAGAAACCGTTCGTTACCCGACCAGCTACTTCGAGAAACCTAGTAACACTATGAACGTTGCGGAGTGTTTCGTTCAGCACTTCCCCCGTGTAGATCAGGTCGATGAGTCACCGCATTCCTCACGGGTGACCGTGGCGGTGGCTGCGTTGGCGGCCTGCCTACGGGTTCGCCCGTAGGACGCTCTAATACCGACATGGTGTGAAGAGTCCATTGAGCTAGCTGGTAGTCCTCCGGCCCCTGAATGCGGCTAATCCTAACTGCGGAGCAGGTGCTCACAGACCAGTGAGTAGCCTGTCGTAACGGGCAACTCTGCAGCGGAACCGACTACTTTGGGTGTTTTTCCTTTTTTCTTCTCTTATATTGGCTGCTTATGGTGACAATTAAAGAATTGTTACCATATAGCTATTGGATTGGCCATCCGGTGACGAGCAGAGCCATTGTTTACCTCTTTGTTGGATTTGTACCTTTGAACCACAAAGTCTTGAATACCATTCATCTCATTTTAAAGTTCAACTCAGCTAAAAGAAA
B2: EV I (nucleic acid)
DNA: TTAGTACTTTCTCACGGGGATAGTGGTATCCCTCCCTAGTAATTTAGAAGACTTGAAAAACCGACCAATAGGCACCTCGCATCCAGCGGGGTAAAGGTCAAGCACTTCTGTTTCCCCGGGTCGAGTAGCGATAGACTGTGCCCACGGTCGAAGGTGAAACAACCCGTTATCCGACTTTGTACTTCGGGAAGCCTAGTACCACCAAAGATTATGCTTGGGGTTTCGCTCAGCACGACCCTGGTGTAGATCAGGCCGATGGATCACCGCATTCCTCACAGGCGACTGTGGCGGTGGTCGCGTGGCAGCCTGCCGATGGGGCAACCCATCGGACGCCAAGCATATGACAGGGTGTGAAGAGCCTACTGAGCTACAAAGTATTCCTCCGGCCCCTGAATGCGGCTAATCCCAACCACGGAGCATTTGCTACCAAACCAGGTAGTGGAATGTCGTAACGGGTAACTCTGTGGCGGAACCGACTACTTTGGGTGTCCGTGTTTCCTTTTAATTTATCATTCTGTATATGGTGACAACTATAGTGCTATCTCGATTTGCATTACTATTGTTGAGATTAAAACTTTATTACATTGTTGCATTTTACCCTTTGAGTGAGTTTTCACCTGAACAGATTAATTTACTCATCCTGTTTATATATTACAAGCAGAAATACTTGCAAAG
modifications: Enterovirus I
B3: EV C102 (nucleic acid, listed as Enterovirus sp.)
DNA: CTTTGTACGCCTGTTTTACATCCCCTCCCCCACGTAACTTTAGAAGCAATTCAACAAGTTCAATAGAGGGGGTACAAACCAGTATCACCACGAACAAGCACTTCTGTTTCCCCGGTGATTTTACATAAGCTGTGCCCACGGCTGAAAGTGAATGATCCGTTACCCGCTCGAGTACTTCGAAAAGCCTAGTATCGCTTTGGGATCTTCGACGCGTTGCGCTCAGCACTCTACCCCGAGTGTAGCTTAGGCTGATGAGTCTGGGCATTCCCCATCGGCGACGATGGCCCAGGCTGCGTTGGCGGCCTACCCATGGCTAACGCCATGGGACGCTAGTTGTGAACAAGGTGTGAAGAGCCTATTGAGCTACTCGAGAGTCCTCCGGCCCCTGAATGCGGCTAATCCCAACCACGGATCAGGTGCCTCCAACCCAGGAGGTGGCCTGTCGTAACGCGCAAGTCTGTGGCGGAACCGACTACTTTGGGTGTCCGTGTTTCCTTTTATCTTTTAAATGGCTGCTTATGGTGACAATCATAGATTGTTATCATAAAGCGAATTGGATTGGCCATCCGGTGAAATACAAACACATTATTTACTTGTTTGTTGGATTTACTCCGCTCACACAGCTTACTCCTAAGATAATATTTATTGTATTGCTGGTAAGGAGACACTATTATA
B4: EV D94 (nucleic acid, listed as Enterovirus sp.)
DNA: CGTGGCGGCCAGTACTCTGGTATCACGGTACCTTTGTACGCCTGTTTTATATCCCCTTCCCCCGCAACTTAGAAGAAAACAAATCAAGTTCACTAGGAGGGGGTACAAACCAGTACCACCACGAACAAGCACTTCTGTTTCCCCGGTGATGTCGTATAGACTGTAACCACGGTTGAAAACGATTGATCCGTTATCCGCTCTTGTACTTCGAAAAGCCCAGTATCACCTTGGAATCTTCGATGCGTTGCGCTCAGCACTCAACCCCAGAGTGTAGCTTAGGTCGATGAGTCTGGACACTCCTCACCGGCGACGGTGGTCCAGGCTGCGTTGGCGGCCTACCTGTGGTCCAAAGCCACAGGACGCTAGTTGTGAACAAGGTGTGAAGAGCCTATTGAGCTACAAGAGAATCCTCCGGCCCCTGAATGCGGCTAATCCTAACCACGGAGCAAGGGTACACAAACCAGTGTATATCTTGTCGTAACGCGCAAGTCTGTGGCGGAACCGACTACTTTGGGTGTCCGTGTTTCCTTTTGTTTTTATCATGGCTGCTTATGGTGACAATCTAAGATTGTTATCATATAGCTGTTGGATTGGCCATCCGGTAATTTATTGAGATTTGAGCATTTGCTTGTTTCTTCAACAATTTCACCTATTCATTGCATTTCAGCAGTCAAA
B5: EV F1 BEV 261 (nucleic acid, listed as Enterovirus sp.)
DNA: GCAATGCTGCACCAGTGCACTGGTACGCTAGTACCTTTTCACGGAGTAGATGGTATCCCTTACCCCGGAACCTAGAAGATTGCACACAAACCGACCAATAGGCGCACCGCATCCAGCCGTGCAGCGGTCAAGCACTTCTGTCTCCCCGGTCTGTAAAGATCGTTATCCGCCCGACCCACTACGAAAAGCCTAGTAACTGGCCAAGTGAACGCGAAGTTGCGCTCCGCCACAACCCCAGTGGTAGCTCTGGAAGATGGGGCTCGCACCACCCCCGTGGTAACACGGTTGCCTGCCCGCGTGTGCTTCCGGGTTCGGTCTCGTGCCGTTCACTTCAACTTCACGCAACCAGCCAAGAGCCTATTGTGCTGGGACGGTTTTCCTCCGGGGCCGTGAATGCTGCTAATCCCAACCTCCGAGCGTGTGCGCACAATCCAGTGTTGCTACGTCGTAACGCGTAAGTTGGAGGCGGAACAGACTACTTTCGGTACCCCGTGTTTCCTCTCATTTTATTTAATATTTTATGGTGACAATTGTTGAGATTTGCGCTCTTGCAACGTTGCCATTGAATATTGGCTTATACTATTTGGTTGCCTTTTACAAAACCTCTGATATACCCAGTTCTTACATTGATCTGCTTGTTTTTCTCAATTTGAAGTATAGACTACAAATAGCAAA
B6: EV J N125 (nucleic acid, listed as Enterovirus sp.)
DNA: CGGTACCTTTGTACGCCTATTTTACCCCCTTCCCCTTGTAACTTAGAAGCAAAGCAAACCAGTTCAATAGTAAGCAACACAACCCAGTGTTGTGACGAACAAGTACTTCTGTTTCCCCGGGAGGGTCTGACGGTAAGCTGTACCCACGGCTGAAGTATGACCTACCGTTAACCGGCTACCTACTTCGAGAAGTCTAGTAATACCATTGAAGTTTTGTTGGCGTTACGCTCAACACACTACCCCGTGTGTAGTTTTGGCTGATGAGTCACGGCATTCCCCACGGGCGACCGTGGCCGTGGCTGCGTTGCGGCCAACCAAGGGGCGCAAGCTCCTTGGACGTCACTTAACAGACATGGTGTGAAGAACCTATTGAGCTAGGTAGTAGTCCTCCGGCCCCTGAATGCGGCTAATCCTAACTCCGGAGCACATCAGTGCAACCCAGCATTTGGTGTGTTGTAATACGCAAGTCTGGAGCGGAACCGACTACTTTGGGTGTCCGTGTTTCCTGTTTTACCTTATTTGGCTGCTTATGGTGACAATTTGATATTGTTACCATATAGCTGTTGGATTGGCCATCCGGATTTTTGAAAGAGACCCAAAACTTTCTTCTCTACTTCAGATTCAAGTGCGAAGTTTTCCTTTTCATATATTACTTACTAATTTGAAGTACCAAAG

system: HEK293 cells; type: cell-based, human; settings: luminescence from secreted Gluc in supernatant 24 hours after transfection of HEK293 cells; circular RNA encoding Gluc with the named IRES (UTR truncated to 675 nt)

Molecule	Expression
B1	5.48E+06
B2	1.31E+08
B3	8.85E+07
B4	9.25E+07
B5	1.12E+07
B6	2.90E+07
